Measured values: patent US20160137746A1, “METHODS FOR TREATING HIGH CARDIOVASCULAR RISK PATIENTS WITH HYPERCHOLESTEROLEMIA” (Sanofi Biotechnology, priority 2014, published 2016)

Test system: high cardiovascular risk patients with hypercholesterolemia
Assay: ODYSSEY LONG TERM: long-term safety and tolerability
[1] = alirocumab patients with two consecutive LDL-C <25 mg/dL (n = 562), pre-specified analysis
[2] = all alirocumab patients (n = 1550), pre-specified analysis

Experimental: Safety parameters (adverse events [including adjudicated cardiovascular events], laboratory data, vital signs, and ECG) were assessed throughout the study.
Safety endpoints assessed in this trial were: cardiovascular events; allergic events; local tolerability at injection site; other adverse events (including hemolytic anemia); laboratory tests: urinalysis, hematology (red blood cell count, red blood cell distribution width (RDW), reticulocyte count, hemoglobin, hematocrit, platelets, white blood cell count with differential blood count), standard chemistry (sodium, potassium, chloride, bicarbonate, calcium, phosphorous, urea nitrogen, creatinine, uric acid, total protein, albumin, LDH, γ Glutamyl Transferase [γGT]), Vitamin E (alpha tocopherol) and other Fat Soluble Vitamins, cortisol (and reflexive ACTH levels, as needed, followed by ACTH stimulation test, as needed), Gonadal Hormone Assessments, Hepatitis C antibody, liver panel (ALT, AST, ALP, and total bilirubin), and CPK; vital signs including heart rate and blood pressure; and 12-lead ECG.
The safety population included all randomized patients who received at least one dose or part of a dose of the double-blind IMP.
Safety analyses were descriptive, performed on the safety population according to treatment actually received. The safety analysis focused on the TEAE period defined as the time from the first dose of double-blind injection up to 70 days after the last double-blind injection. TEAE which developed, worsened or became serious or PCSA occurring after the patient's first injection in the open-label extension study (LTS13643) were not considered in the TEAE period. TEAE period was truncated at the common study cut-off date.

For “Alirocumab: human anti-PCSK9 antibody; HCVR SEQ ID NO:1, LCVR SEQ ID NO:6; CDRs SEQ ID NOs 2/3/4/7/8/10”, the “TEAEs by System-Organ-Class: Investigations (lab parameters), % of patients” value [1] was 3.7% (21), the “TEAEs by System-Organ-Class: Metabolism and nutrition disorders, % of patients” value [1] was 8.0% (45) and the “TEAEs by System-Organ-Class: Musculoskeletal and connective tissue disorders, % of patients” value [1] was 22.6% (127). The “TEAEs by System-Organ-Class: Neoplasms, benign, malignant (incl cysts/polyps), % of patients” value [1] was 3.0% (17), the “TEAEs by System-Organ-Class: Nervous system disorders, % of patients” value [1] was 11.2% (63) and the “TEAEs by System-Organ-Class: Psychiatric disorders, % of patients” value [1] was 4.3% (24). For the same substance, the “TEAEs by System-Organ-Class: Renal and urinary disorders, % of patients” value [1] was 3.6% (20), the “TEAEs by System-Organ-Class: Reproductive system and breast disorders, % of patients” value [1] was 2.0% (11) and the “TEAEs by System-Organ-Class: Respiratory, thoracic, and mediastinal disorders, % of patients” value [1] was 7.7% (43). For the same substance, the “TEAEs by System-Organ-Class: Skin and subcutaneous tissue disorders, % of patients” value [1] was 6.9% (39), the “TEAEs by System-Organ-Class: Vascular disorders, % of patients” value [1] was 5.0% (28) and the “TEAEs leading to discontinuation, % of patients” value [1] was 3.6% (20). The “TEAEs, % of patients” value [1] was 71.9% (404), the “Treatment-emergent SAEs, % of patients” value [1] was 14.6% (82) and the “AE of special interest: All adjudicated cardiovascular events, % of patients” value [2] was 4.0% (62). For the same substance, the “AE of special interest: General allergic reaction events, % of patients” value [2] was 9.0% (140), the “AE of special interest: Haemolytic anaemia, % (n) of patients” value [2] was 0 and the “AE of special interest: Neurocognitive disorders, % of patients” value [2] was 1.2% (18). The “AE of special interest: Neurological events, % of patients” value [2] was 4.2% (65), the “AE of special interest: Ophthalmological events, % of patients” value [2] was 2.5% (38) and the “AE of special interest: Treament-emergent local injection site reactions, % of patients” value [2] was 5.8% (90). The “Neurocognitive AE: Amnesia, % of patients” value [2] was 0.3% (5), the “Neurocognitive AE: Any neurocognitive disorder, % of patients” value [2] was 1.2% (18) and the “Neurocognitive AE: Confusion postoperative, % of patients” value [2] was <0.1% (1). The “Neurocognitive AE: Confusional state, % of patients” value [2] was 0.3% (4), the “Neurocognitive AE: Dementia, % of patients” value [2] was <0.1% (1) and the “Neurocognitive AE: Disorientation, % of patients” value [2] was <0.1% (1). For the same substance, the “Neurocognitive AE: Disturbance in attention, % of patients” value [2] was <0.1% (1), the “Neurocognitive AE: Frontotemporal dementia, % of patients” value [2] was <0.1% (1) and the “Neurocognitive AE: Memory impairment, % of patients” value [2] was 0.3% (5). For the same substance, the “Neurocognitive AE: Transient global amnesia, % of patients” value [2] was <0.1% (1), the “TEAE ALT increase, % of patients” value [2] was 1.1% and the “TEAE AST increase, % of patients” value [2] was 0.2%. The “TEAE Angina pectoris, % of patients” value [2] was 2.1% (32), the “TEAE Arthralgia, % of patients” value [2] was 4.5% (70) and the “TEAE Atrial fibrillation, % of patients” value [2] was 1.4% (22). For the same substance, the “TEAE Back pain, % of patients” value [2] was 4.7% (73), the “TEAE Bronchitis, % of patients” value [2] was 5.2% (80) and the “TEAE CPK increase, % of patients” value [2] was 0.5%. For the same substance, the “TEAE Cellulitis, % of patients” value [2] was 1.4% (22), the “TEAE Confusion, % of patients” value [2] was 2.3% (35) and the “TEAE Constipation, % of patients” value [2] was 1.9% (30). For the same substance, the “TEAE Cough, % of patients” value [2] was 3.2% (49), the “TEAE Depression, % of patients” value [2] was 1.8% (28) and the “TEAE Diabetes in patients with history of diabetes (Company MedDRA Query "diabetes"), number as printed” value [2] was 48. For the same substance, the “TEAE Diabetes in patients with no history of diabetes (Company MedDRA Query "diabetes"), number as printed” value [2] was 19, the “TEAE Diarrhea, % of patients” value [2] was 5.3% (82) and the “TEAE Dizziness, % of patients” value [2] was 2.5% (38). The “TEAE Fall, % of patients” value [2] was 2.8% (43), the “TEAE Fatigue, % of patients” value [2] was 3.0% (47) and the “TEAE Gastoenteritis, % of patients” value [2] was 2.4% (37). The “TEAE Headache, % of patients” value [2] was 4.8% (74), the “TEAE Hypertension, % of patients” value [2] was 3.5% (54) and the “TEAE Influenza, % of patients” value [2] was 5.4% (84). For the same substance, the “TEAE Injection site reaction, % of patients” value [2] was 5.7% (89), the “TEAE Muscle spasms, % of patients” value [2] was 3.7% (58) and the “TEAE Musculoskeletal pain, % of patients” value [2] was 2.3% (36). For the same substance, the “TEAE Myalgia, % of patients” value [2] was 4.9% (76), the “TEAE Nasopharyngitis, % of patients” value [2] was 12.6% (196) and the “TEAE Nausea, % of patients” value [2] was 2.4% (37). The “TEAE Non-cardiac chest pain, % of patients” value [2] was 1.8% (28), the “TEAE Osteoarthritis, % of patients” value [2] was 2.3% (35) and the “TEAE Pain in extremity, % of patients” value [2] was 3.0% (46). For the same substance, the “TEAE Rhinitis, % of patients” value [2] was 1.4% (22), the “TEAE Sinusitis, % of patients” value [2] was 2.6% (40) and the “TEAE Type-2 diabetes mellitus, % of patients” value [2] was 1.7% (27). For the same substance, the “TEAE leading to death, % of patients” value [2] was 0.5% (7), the “TEAEs by System-Organ-Class: Blood and lymphatic system disorders, % of patients” value [2] was 2.4% (37) and the “TEAEs by System-Organ-Class: Cardiac disorders, % of patients” value [2] was 9.1% (141). For the same substance, the “TEAEs by System-Organ-Class: Ear and labyrinth disorders, % of patients” value [2] was 2.0% (31), the “TEAEs by System-Organ-Class: Eye disorders, % of patients” value [2] was 6.5% (100) and the “TEAEs by System-Organ-Class: Gastrointestinal disorders, % of patients” value [2] was 18.6% (288). The “TEAEs by System-Organ-Class: General disorders and administration site conditions, % of patients” value [2] was 15.4% (238), the “TEAEs by System-Organ-Class: Injury, poisoning, and procedural complications, % of patients” value [2] was 13.4% (207) and the “TEAEs by System-Organ-Class: Investigations (lab parameters), % of patients” value [2] was 6.1% (95). For the same substance, the “TEAEs by System-Organ-Class: Metabolism and nutrition disorders, % of patients” value [2] was 9.1% (141), the “TEAEs by System-Organ-Class: Musculoskeletal and connective tissue disorders, % of patients” value [2] was 27.2% (422) and the “TEAEs by System-Organ-Class: Neoplasms, benign, malignant (incl cysts/polyps), % of patients” value [2] was 2.5% (38). The “TEAEs by System-Organ-Class: Nervous system disorders, % of patients” value [2] was 17.0% (264), the “TEAEs by System-Organ-Class: Psychiatric disorders, % of patients” value [2] was 5.9% (91) and the “TEAEs by System-Organ-Class: Renal and urinary disorders, % of patients” value [2] was 4.6% (72). The “TEAEs by System-Organ-Class: Reproductive system and breast disorders, % of patients” value [2] was 2.5% (38), the “TEAEs by System-Organ-Class: Respiratory, thoracic, and mediastinal disorders, % of patients” value [2] was 11.0% (171) and the “TEAEs by System-Organ-Class: Skin and subcutaneous tissue disorders, % of patients” value [2] was 9.1% (141). The “TEAEs by System-Organ-Class: Vascular disorders, % of patients” value [2] was 7.9% (122), the “TEAEs leading to discontinuation, % of patients” value [2] was 6.2% (96) and the “TEAEs, % of patients” value [2] was 78.6% (1218). For the same substance, the “Treatment-emergent SAEs, % of patients” value [2] was 16.5% (255), the Injection-site reactions (final analysis) was 5.9% and the Myalgia (final analysis) was 5.4%. For the same substance, the Neurocognitive events (final analysis) was 1.2%, the Ophthalmological events (final analysis) was 2.9% and the “Patients with two consecutive calculated LDL cholesterol levels of less than 25 mg/dL (575 patients)” value (final analysis) was 38%. For the same substance, the Treatment-emergent adverse events (final analysis) was 81%, the “Treatment-emergent adverse events leading to study-drug discontinuation” value (final analysis) was 7.2% and the “Alanine aminotransferase > 3 × ULN, % of patients” value (pre-specified analysis) was 1.6%. The “Alanine aminotransferase > 3 × ULN, n/N of patients” value (pre-specified analysis) was 25/1532, the “Aspartate aminiotransferase >3 × ULN, % of patients” value (pre-specified analysis) was 1.2% and the “Aspartate aminiotransferase >3 × ULN, n/N of patients” value (pre-specified analysis) was 19/1532. The “Creatine kinase > 3 × ULN, % of patients” value (pre-specified analysis) was 3.3%, the “Creatine kinase > 3 × ULN, n/N of patients” value (pre-specified analysis) was 50/1507 and the “Deaths reported during the study” value (pre-specified analysis) was 11 (0.7%) n (%). The “Diarrhea (TEAE preferred term)” value (pre-specified analysis) was 5.3%, the “Headache (TEAE preferred term)” value (pre-specified analysis) was 4.8% and the Hemolytic anaemia (pre-specified analysis) was “No case”. The “Influenza (TEAE preferred term)” value (pre-specified analysis) was 5.4%, the “Injection site reaction (TEAE preferred term)” value (pre-specified analysis) was 5.7% and the “Nasopharyngitis (TEAE preferred term)” value (pre-specified analysis) was 12.6%. The Neurocognitive disorders (pre-specified analysis) was 18 (1.2%) n (%), the “Patients with LDL-C <25 mg/dL in two or more consecutive periods, share of population treated with alirocumab (562 out of 1550)” value (pre-specified analysis) was 36.3% and the “Patients with impaired glucose control at baseline defined as diabetic in the TEAE period” value (pre-specified analysis) was 36 (6.3%) n (%). The “Patients with two consecutive calculated LDL-C values <25 mg/dL (<0.65 mmo/L)” value (pre-specified analysis) was 562 (37.4%) n (%), the SOC gastrointestinal disorders (pre-specified analysis) was 18.6% and the “SOC general disorders and administration site conditions” value (pre-specified analysis) was 15.4%. For the same substance, the “SOC injury, poisoning and procedural complications” value (pre-specified analysis) was 13.4%, the “SOC musculoskeletal and connective tissue disorders” value (pre-specified analysis) was 27.2% and the “SOC nervous system disorders” value (pre-specified analysis) was 17.0%. For the same substance, the “SOC respiratory, thoracic and mediastinal disorders” value (pre-specified analysis) was 11.0%, the “Safety in patients with two consecutive calculated LDL-C <25 mg/dL” value (pre-specified analysis) was “No particular safety concern” and the “TEAE leading to death” value (pre-specified analysis) was 7 (0.5%) n (%). The “Time to first injection site reaction” value (pre-specified analysis) was 57 days and the “Treatment-emergent local injection site reaction” value (pre-specified analysis) was 90 (5.8%) n (%).
